The target of assay [1] is T1, HCoV-HKU1 trimeric S protein (amino acids 13-1293) with T4 foldon, histidine tag and strep-tag (HCoV-HKU1, UniProt Q5MQD0 13-1297).
T1 sequence: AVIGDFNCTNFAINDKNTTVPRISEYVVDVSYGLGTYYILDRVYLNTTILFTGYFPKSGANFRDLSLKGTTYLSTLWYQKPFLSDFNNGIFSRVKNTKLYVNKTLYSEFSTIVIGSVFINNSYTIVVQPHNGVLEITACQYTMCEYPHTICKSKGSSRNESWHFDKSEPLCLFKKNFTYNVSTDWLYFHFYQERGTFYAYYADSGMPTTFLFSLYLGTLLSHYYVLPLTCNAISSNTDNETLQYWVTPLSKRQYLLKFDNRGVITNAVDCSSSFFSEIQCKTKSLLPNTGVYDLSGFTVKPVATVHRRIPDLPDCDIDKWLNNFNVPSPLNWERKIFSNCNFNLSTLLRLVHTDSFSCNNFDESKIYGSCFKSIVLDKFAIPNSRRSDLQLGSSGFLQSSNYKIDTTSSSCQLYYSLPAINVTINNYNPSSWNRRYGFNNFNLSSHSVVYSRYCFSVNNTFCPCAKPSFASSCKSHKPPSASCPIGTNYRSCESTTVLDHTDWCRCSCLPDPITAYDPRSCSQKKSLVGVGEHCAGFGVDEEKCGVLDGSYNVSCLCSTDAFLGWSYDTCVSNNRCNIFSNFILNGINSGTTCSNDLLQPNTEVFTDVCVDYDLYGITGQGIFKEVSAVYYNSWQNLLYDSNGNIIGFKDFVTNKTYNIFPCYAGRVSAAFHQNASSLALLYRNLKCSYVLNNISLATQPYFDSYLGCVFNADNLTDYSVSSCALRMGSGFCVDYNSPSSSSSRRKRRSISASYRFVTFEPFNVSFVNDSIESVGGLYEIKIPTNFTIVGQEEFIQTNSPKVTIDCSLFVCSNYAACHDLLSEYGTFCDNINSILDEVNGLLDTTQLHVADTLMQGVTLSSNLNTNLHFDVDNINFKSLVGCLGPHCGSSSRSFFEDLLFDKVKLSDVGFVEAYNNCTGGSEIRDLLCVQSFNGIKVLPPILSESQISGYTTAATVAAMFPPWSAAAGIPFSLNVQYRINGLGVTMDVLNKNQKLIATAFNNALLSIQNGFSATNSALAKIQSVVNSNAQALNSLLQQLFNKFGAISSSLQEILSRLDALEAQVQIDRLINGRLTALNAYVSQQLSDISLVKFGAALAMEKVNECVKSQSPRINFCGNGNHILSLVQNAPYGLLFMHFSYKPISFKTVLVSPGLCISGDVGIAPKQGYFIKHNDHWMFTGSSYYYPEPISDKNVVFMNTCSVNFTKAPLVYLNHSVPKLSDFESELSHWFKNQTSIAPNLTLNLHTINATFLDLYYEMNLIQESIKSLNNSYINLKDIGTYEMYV
In words: ELISA on coated S-trimeric antigen, anti-human IgG-HRP [Human IgG1, NT-108].

The target of assay [2] is T2, HCoV-OC43 trimeric S protein (amino acids 12-1299) with T4 foldon, histidine tag and strep-tag (HCoV-OC43, UniProt P36334 12-1291).
T2 chain: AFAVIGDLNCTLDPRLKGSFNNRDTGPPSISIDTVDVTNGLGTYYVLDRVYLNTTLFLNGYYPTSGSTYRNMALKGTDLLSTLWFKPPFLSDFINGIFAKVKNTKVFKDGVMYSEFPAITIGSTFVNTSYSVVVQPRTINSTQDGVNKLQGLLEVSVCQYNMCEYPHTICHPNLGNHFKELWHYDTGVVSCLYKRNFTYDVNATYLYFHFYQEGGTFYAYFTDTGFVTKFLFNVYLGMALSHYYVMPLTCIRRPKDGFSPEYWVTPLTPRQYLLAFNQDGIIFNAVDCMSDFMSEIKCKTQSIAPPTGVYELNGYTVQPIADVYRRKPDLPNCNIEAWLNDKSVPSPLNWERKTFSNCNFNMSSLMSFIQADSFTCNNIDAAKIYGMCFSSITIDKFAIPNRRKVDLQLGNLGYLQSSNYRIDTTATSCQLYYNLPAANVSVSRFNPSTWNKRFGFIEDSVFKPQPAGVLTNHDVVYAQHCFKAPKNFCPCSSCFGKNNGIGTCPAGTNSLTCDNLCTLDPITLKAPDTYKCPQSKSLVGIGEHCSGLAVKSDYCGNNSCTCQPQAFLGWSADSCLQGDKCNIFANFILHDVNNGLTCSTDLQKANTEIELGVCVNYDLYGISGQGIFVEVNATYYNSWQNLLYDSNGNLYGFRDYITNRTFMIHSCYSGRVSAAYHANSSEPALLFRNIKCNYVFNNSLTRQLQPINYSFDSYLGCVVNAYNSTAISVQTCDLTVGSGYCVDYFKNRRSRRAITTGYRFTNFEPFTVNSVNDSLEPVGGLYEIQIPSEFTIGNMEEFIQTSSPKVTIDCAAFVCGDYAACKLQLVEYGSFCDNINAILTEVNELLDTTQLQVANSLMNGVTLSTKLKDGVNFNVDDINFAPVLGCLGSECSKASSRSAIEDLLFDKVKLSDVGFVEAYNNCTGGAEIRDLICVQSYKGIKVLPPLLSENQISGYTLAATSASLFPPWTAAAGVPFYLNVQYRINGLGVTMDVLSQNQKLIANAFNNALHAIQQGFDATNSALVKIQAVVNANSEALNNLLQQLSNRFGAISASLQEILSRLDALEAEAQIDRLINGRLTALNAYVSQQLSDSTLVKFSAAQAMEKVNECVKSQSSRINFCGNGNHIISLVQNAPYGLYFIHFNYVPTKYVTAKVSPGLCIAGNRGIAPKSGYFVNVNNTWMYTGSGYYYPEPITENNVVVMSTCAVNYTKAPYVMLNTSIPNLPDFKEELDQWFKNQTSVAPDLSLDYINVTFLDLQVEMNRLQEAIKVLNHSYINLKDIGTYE
The description is as above.

The target of assay [3] is T1, HCoV-HKU1 trimeric S protein (amino …). In words: ELISA on coated S-trimeric antigen, anti-human IgG-HRP [Human IgG1, NT-193]. A general note: An ELISA detects its analyte on a solid surface through an enzyme-linked reagent.
For assay [4], the target named is T2, HCoV-OC43 trimeric S protein (amino …). Described as above.

B1: NT-108 (recombinant human IgG1/kappa antibody) (antibody, V domains shown)
VH: EVQLQQSGPGLVKPSQTLSLTCSISGDSVSSNSAAWNWIRQSPSRGLEWLGRTYYRSKWYNDYAGTVKSRIAINPDTSKNQFSLHLNSVTPEDTAVYFCARVISVAGYAFDIWGQGTMVTVSS
VL: EIVLTQSPGTLSLSPGERATLSCRASQSVSSTFLAWYQQKPGQAPRLLIYGASYMATGIPDRFSGSGSGTDFTLTISRLEPEDFAVYYCQQYGSSLTFGGGTKLEIK
Turning to B1, the binding result in assay [1] and in assay [2] was “no binding (tested: 1000 ng/ml)” each time.

B2: NT-193 (recombinant human IgG1/kappa antibody) (antibody, V domains shown)
VH: EVQLQQWGAGLLKPSETLSLTCAVYGGSFSGYYWSWIRQPPGKGLEWIGEINHSGSTNYNPSLKSRVTISVDTSKNQFSLKLSSVTAADTAVYYCARGWDLDYYYGMDVWGQGTTVTVSS
VL: DIRMTQSPSAMSASVGDRVTVTCRASQGIGNYLAWFQLKPGKVPKRLIYAASSLQSGVPARFSGGGSGTEFTLTISSLQPEDFATYYCLQHGFLPWTFGQGTKLEIK
On to B2, for which the binding result in assay [3] and in assay [4] was “no binding (tested: 1000 ng/ml)” each time.
